According to patent US20240075139A1:
Changes are numbered by the printed parent chain.

B1: 4T0306 (antibody, V domains shown)
VH: QVQLQQSGPGLVRPSQTLSLICAISGDSVSDNNAAWNWIRQSPSRGLEWLGRTYFRSRWYNDYPESLKGRVIINPDTAENQVSLQLSSVTPGDTAVYYCVREYYDLWNGFYPGGAMDVWGQGTTVTVSS
VL: DIQLTQSPSSLSASVGDRVTITCRASQDISDFLNWFQQKPGKAPKLLIYDVSKLARGVPSRFSGSASGTDFTFTISSLQPEDIATYYCQQYDDLPRTFGQGTKLEIK
B2: 1T0451 (antibody, V domains shown)
VH: QVQLVQSGAEVKKPGASVKISCEASGYNFNGYVIDWVRQAPGQRLEWMGWINPGNGNTKFSPKFQGRVTFTRAASASTAYMELSSLTSEDTALYFCARGRGTSYYYAFDVWGQGTTVTVSS
VL: DIQMTQFPSSLSASVGDRVTISCRASQNISNYLNWYQQKPGKAPKFLIYAASNLQSGVPSRFSGSGSGTGFTLTISNLQPEDFAIYYCQQTYRSPLYTFGQGTKLEIK
B3: 1T0655 (antibody, V domains shown)
VH: QVQLVQSGAEVKKPGASVKVSCKASGYTFTSYYMHWVRQVPGQGLEWMGIIKAGNGGTNYAQNFQGRITVTRDTSTSTVYMELSSLRSEDTAVYYCARDRQWLPLNGYSYFNYGMDVWGQGTTVTVSS
VL: DIQMTQSPSSLSASVGDKITITCRASQSISTYLNWYQQRPGRAPKLLIFGASSLQSGVPSRFSGSGSGTVFTLSISSLQPDDFGSFYCQQSFSSPRTFGQGTKVEIK
B4: 5T0337 (antibody, V domains shown)
VH: EVQLVESGGGLVKPGGSLRISCAASGFTFNNAWMNWVRQSPGKGLEWVGRIKSKSDAGTTDYAAPVKGRFIISRDDSKKTLFLQMNSLKIEDTAIYFCMTGFEHTYSYFDLWGRGTQVTVSS
VL: QSVLTQPPSVSGAPGQRVIISCIGGSSNIGAGYDVKWYQQLLPGTAPRLLIYGNTNRPSGVPDRFSGSKSGTSASLAITGLQAEDEADYYCQSYDSRLRDAWVFGGGTKLTVL
B5: 4T0726 (antibody, V domains shown)
VH: QVQLVQSGVEVKEPGASVRVSCKASGYTFTHYGITWVRQAPGQGLEWMGWISGYNGNTDYAQKFQGRITMTTDTSTSTAYMELGRLTSDDTAVYYCARTITMILLGWFDPWGQGTLVTVSS
VL: EIVLTQSPGTLSLSPGERATLSCRASQSVSSNYLAWYQQKPGQAPRLLISGASNRATGLPDGFSGSGSGTDFTLTISRLEPEDFAVFFCQQYGTSPLTFGPGTKVDIK
B6: 4T0429 (antibody, V domains shown)
VH: QVQLQQWGAGLLKPSETLSLTCAVYRGSFITYYWSWVRQPPGRGLEWIGEIYKDGSASYNPSLKNRVTISLDMSKNHFSLNLDSVTAADTAVYYCARHGHTGMDVWGQGTTVTVSS
VL: QSVLTQPPSTSGTPGQRVTISCSGSSSNIGLNYVYWYQQLPGTAPKLLIYRNNQRPSGVPDRFSGSKSGTSASLAISGLRSEDEADYYCAAWDDSLSAYIFGTGTKVTVL
B7: 5T0223 (antibody, V domains shown)
VH: EVQLVESGGGLVKPGGSLRLSCEASGFTFRNTWMNWVRQAPGKGLEWVGRIKSNTDGGTADYAAPVKGRFTISRDDSKSTLFLEMISLRTEDTGFYYCTKGGPGAHSWGLGTLVTVSS
VL: QSVLTQPPSVSGAPGQRVTISCTGSSSNIGAGYDVQWYQQLPGTAPKVLIYHNTNRPSGVPDRFSGSRSGTSASLVITGLQAEDEADYYCQTYDSRLSDHWVFGGGTKLTVL
B8: 5T0180 (antibody, V domains shown)
VH: EVQLVESGGGLVKPGGSLRLSCAASGFSFGNAWMNWVRQAPGKGLEWVGRIKSKSDGGTTDYAAPVKDRFIISRDDSKKTLYLQMNSLRREDTAVYYCVRGPFYCDTCGPNDYWGQGTLVTVSS
VL: B7 VL with H52G, T54N, R68K, T71S, V76A, S98R, H100Q
B9: 1T0473 (antibody, V domains shown)
VH: QVQLVQSGAEVKKPGASVKVSCKASGYTFPSYEINWVRQATGQGLEWMGWMDPKSGKTGYAQKFQGRVTMTRNPSISTAYLELSSLRSEDSAVYYCARGNQWFGELLSSYYGLDVWGQGTTVTVSS
VL: EIVLTQSPGTLSLSPGEGATLSCRASQSVSSSFLTWYHQKPGQAPRLLIYGASNRATGVPDRFSGGGSGTDFTLTISRLEPEDFGVYYCQQYGSSLITFGPGTKVDIK
B10: 3T0468 (antibody, V domains shown)
VH: EVQLVESGGHLIQPGGSLRLSCAASGFTFRIYDMHWVRQGRRKGLEWVSAIGAAGDTYYSDSVKGRFTISRENAKSSLYLQMNSLSVGDTAVYYCARAAFGAVYYDNWGQGILVTVSS
VL: EIVLTQSPGTLSLSPGERATLSCRASENVDSRFLVWYQQKVGQAPRLLIYGASRRATGIPDRFSGSGSGTDFALTISRLEPEDLAVYYCQQYGRSPITFGQGTRLEIK
B11: 5T0202 (antibody, V domains shown)
VH: EVQLVESGGGLVKPGGSLRLSCGASGFSFNDAWMNWVRQAPGKGLEWVGRIKSKADGGGSDTAAPVKGRFIISRDDSKNTLFLQMERLKSEDTGVYYCTTSLNIWGTYRDCWGQGTLVTVSS
VL: QSVLTQPPSVSGAPGQRVTISCTGSYSNIGAGYDVRWYQQLPETAPKLLIYGNNNRPSGVPDRFSGSKSGTSASLAITGLQAEDEADYYCQSYDSRLRDSWVFGGGTRLTVL
B12: 1T0201 (antibody, V domains shown)
VH: EVQLVESGGGLVKPGGSLRLSCAAAGFSFSKAWMNWVRQAPGKGLEWVGRIKSKTDGGTTDYTAPVKGRFIISRDDSKNMLYLQMNSLKAEDTAVYWCTTRVDMEWGKYGTDVWGQGTTVTVSS
VL: B11 VL with Y26S, R36H, Q40K, E43G, G52D, N53K, N55I, T71V, R98S, R108K
B13: 5T0376 (antibody, V domains shown)
VH: QVQLQESGPGLVKPSETLSLTCSVSGASISTLYWSWIRQPPGKGLEWIGYMHSSGTTNYNPSLESRVTMSIDTSRNQFSLKLTSVTAADTAVYYCARGLLGPGDSWGQGTLVTVSS
VL: QSALTQPASVSGSPGQSITISCTGTSSDVGGYNYVSWYQQYPGKAPKLMIYEVTSRPSGVSNRFSGSKSGNTASLTISGLQAEDEGDYYCSSYKTGSTPVVFGGGTKLTVL
B14: 3T0258 (antibody, V domains shown)
VH: QVQLVQSGAEVKQPGASVKVTCKASGSTRSSYDLIWVRQAPGQGLELMGRVNTHNGNTDYAQKFQGRVTMTTDTSTTTAHMELRNLRSDDTAVYYCAWRRSSWFAFDVWGQGTAVTVSS
VL: EIVLTQSPGTLSLSPGERGTLSCRASQSISGNYLGWYQQSPGQAPRLLIYGASNRATGVPDRFSGSGSGTDFTLTISRLEPEDFAVYYCQQYVSSPYTFGQGTKLEIK
B15: 1T0139 (antibody, V domains shown)
VH: QVQLQESGPGLVKPSETLSLTCIVSGGSLSSYYWSWVRQPAGKGLQWIGHIYTTGSTNYNPSLKSRVTMSIDTSKNQFSLRLSSVTAADTAVYYCARESYRYNAYDIHPFDYWGQGTLVTVSS
VL: SYELTQSSSVSVSPGQTASITCSGDKLGDNYVCWYQQKPGQSPTLVIYQDNRRPSGIPERFSGSNSGNTATLTIRGTQALDEADYYCQAWASNTVVFGGGTKLTVL

The binders below were run against EBOV Mayinga (GenBank: NC_002549) (Zaire Ebolavirus (EBOV Mayinga)) (UniProt Q05320) (assay: cell-based or functional assay).
UniProt Q05320, sequence (Q05320 33-676 limits assumed): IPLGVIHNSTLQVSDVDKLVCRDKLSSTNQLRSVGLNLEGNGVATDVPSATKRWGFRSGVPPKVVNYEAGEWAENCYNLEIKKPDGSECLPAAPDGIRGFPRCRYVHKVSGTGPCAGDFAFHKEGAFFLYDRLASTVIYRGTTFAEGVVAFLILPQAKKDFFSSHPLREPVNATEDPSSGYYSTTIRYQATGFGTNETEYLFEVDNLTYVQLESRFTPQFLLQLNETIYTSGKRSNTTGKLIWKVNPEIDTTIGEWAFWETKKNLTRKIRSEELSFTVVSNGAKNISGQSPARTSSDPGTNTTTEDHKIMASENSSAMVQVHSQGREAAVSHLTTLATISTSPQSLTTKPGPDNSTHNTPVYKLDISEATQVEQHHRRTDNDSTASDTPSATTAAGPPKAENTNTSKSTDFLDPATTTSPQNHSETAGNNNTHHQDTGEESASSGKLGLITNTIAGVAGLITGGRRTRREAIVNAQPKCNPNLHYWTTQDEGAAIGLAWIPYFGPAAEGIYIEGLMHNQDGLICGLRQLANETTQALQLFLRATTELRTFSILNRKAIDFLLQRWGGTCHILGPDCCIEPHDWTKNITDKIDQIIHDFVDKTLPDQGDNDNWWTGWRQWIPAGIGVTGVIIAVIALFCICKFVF

Going from B1 to B2, the neutralization concentration (GMC, CPE reduction on Vero C1008 cells) falls from 100 µg/mL to 2.5 µg/mL (40-fold).

Compared with B3, B4 is 28-fold higher in neutralization concentration (GMC, CPE reduction on Vero C1008 cells): 0.08 µg/mL for the first, 2.21 µg/mL for the second.

Going from B5 to B6, the neutralization concentration (GMC, CPE reduction on Vero C1008 cells) rises from 2.56 µg/mL to 35 µg/mL (14-fold).

First: B7
Second: B8
The neutralization concentration (GMC, CPE reduction on Vero C1008 cells) of the first is 6.7-fold lower: 1.86 µg/mL for the first, 12.5 µg/mL for the second.

B9 and B10 are within 1.5-fold of each other in neutralization concentration (GMC, CPE reduction on Vero C1008 cells): 2.63 µg/mL for the first, 2.1 µg/mL for the second.

B11 and B12 are within 1.5-fold of each other in neutralization concentration (GMC, CPE reduction on Vero C1008 cells): 2.5 µg/mL for the first, 2.63 µg/mL for the second.

Compared with B13, B14 is 210-fold lower in neutralization concentration (GMC, CPE reduction on Vero C1008 cells): 12.5 µg/mL for the first, 0.06 µg/mL for the second.

B15 was tested, and the neutralization concentration (GMC, CPE reduction on Vero C1008 cells) was 7.44 µg/mL.
